# Measurements as given in patent publication US20210070882A1 (Hoffmann-La Roche, published 2021).
# Positions count from the first letter of the chain named. Several values for one entry are separate records, joined by “and”; a condition that tells them apart may be missing. Equal values may be shown once. Read-outs that look alike come from different tables or passages of the source.
# T1: human CD19 (human, UniProt P15391 20-556)
# T1 sequence (looked up): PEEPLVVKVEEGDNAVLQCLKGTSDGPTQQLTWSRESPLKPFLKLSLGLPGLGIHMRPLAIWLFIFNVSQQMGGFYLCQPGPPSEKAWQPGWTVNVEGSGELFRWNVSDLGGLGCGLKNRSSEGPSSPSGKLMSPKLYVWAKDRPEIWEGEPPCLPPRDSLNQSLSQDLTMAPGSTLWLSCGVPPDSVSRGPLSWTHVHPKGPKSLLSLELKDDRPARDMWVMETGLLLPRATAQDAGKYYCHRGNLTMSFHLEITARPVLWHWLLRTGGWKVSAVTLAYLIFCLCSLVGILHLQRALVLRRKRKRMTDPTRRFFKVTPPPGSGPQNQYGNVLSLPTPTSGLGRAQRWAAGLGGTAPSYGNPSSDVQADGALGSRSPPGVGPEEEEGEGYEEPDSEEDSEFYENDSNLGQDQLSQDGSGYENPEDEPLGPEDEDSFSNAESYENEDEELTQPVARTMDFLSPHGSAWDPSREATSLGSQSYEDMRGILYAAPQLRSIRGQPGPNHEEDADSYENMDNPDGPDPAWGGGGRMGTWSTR
# B1: Molecule G: 2+1 IgG CrossFab, inverted, with charge modifications (VH/VL exchange in CD19 binder, charge modification in CD3 binder, parental murine CD19 … (bispecific antibody)
# chain 1: DAVMTQTPLSLPVSLGDQASISCRSSQSLENSNGNTYLNWYLQKPGQSPQLLIYRVSKRFSGVLDRFSGSGSGTDFTLKISRVEAEDLGVYFCLQLTHVPYTFGGGTKLEIKSSASTKGPSVFPLAPSSKSTSGGTAALGCLVKDYFPEPVTVSWNSGALTSGVHTFPAVLQSSGLYSLSSVVTVPSSSLGTQTYICNVNHKPSNTKVDKKVEPKSCDKTHTCPPCPAPEAAGGPSVFLFPPKPKDTLMISRTPEVTCVVVDVSHEDPEVKFNWYVDGVEVHNAKTKPREEQYNSTYRVVSVLTVLHQDWLNGKEYKCKVSNKALGAPIEKTISKAKGQPREPQVCTLPPSRDELTKNQVSLSCAVKGFYPSDIAVEWESNGQPENNYKTTPPVLDSDGSFFLVSKLTVDKSRWQQGNVFSCSVMHEALHNHYTQKSLSLSP
# chain 2: not shown
# chain 3: EVQLQQSGPELVKPGASVKMACKASGYTFTDYIMHWVKQKTGQGLEWIGYINPYNDGSKYTEKFNGKATLTSDKSSITAYMELSSLTSEDSAVYYCARGTYYYGSALFDYWGQGTTLTVSSASVAAPSVFIFPPSDEQLKSGTASVVCLLNNFYPREAKVQWKVDNALQSGNSQESVTEQDSKDSTYSLSSTLTLSKADYEKHKVYACEVTHQGLSSPVTKSFNRGEC
# chain 4: QAVVTQEPSLTVSPGGTVTLTCGSSTGAVTTSNYANWVQEKPGQAFRGLIGGTNKRAPGTPARFSGSLLGGKAALTLSGAQPEDEAEYYCALWYSNLWVFGGGTKLTVLGQPKAAPSVTLFPPSSKKLQANKATLVCLISDFYPGAVTVAWKADSSPVKAGVETTTPSKQSNNKYAASSYLSLTPEQWKSHRSYSCQVTHEGSTVEKTVAPTECS
# B2: CD19_IgG_10C1 (antibody, V domains shown)
# VH: EVQLQQSGPELVKPGASVKMSCKASGYTFTSYVMHWVKQKPGQGLEWIGYINPYNDGTKFNEKFKGKATLTSDKSSSTAYMELSSLTSEDSAVYYCTRGVYYYGSSQGDYWGQGTTLTVSS
# VL: DAVMTQTPLSLPVSLGDQASISCRSSQSLENSNGNTYLNWYLQKPGQSPQLLIYRISNRFSGVPDRFNGSGSGTDFTLKISRVEAEDLGVYFCLQVTHVPWTFGGGTKLEIK
# notes: also called CD19 IgG (clone 10C1); 10C1 as IgG
# B3: Molecule E: 1+1 IgG CrossFab, inverted, without charge modifications (CH1/CL exchange in CD3 binder, parental murine CD19 binder 8B8) (bispecific antibody)
# chain 1: not shown
# chain 2: QAVVTQEPSLTVSPGGTVTLTCGSSTGAVTTSNYANWVQEKPGQAFRGLIGGTNKRAPGTPARFSGSLLGGKAALTLSGAQPEDEAEYYCALWYSNLWVFGGGTKLTVLSSASTKGPSVFPLAPSSKSTSGGTAALGCLVKDYFPEPVTVSWNSGALTSGVHTFPAVLQSSGLYSLSSVVTVPSSSLGTQTYICNVNHKPSNTKVDKKVEPKSC
# chain 3: DAVMTQTPLSLPVSLGDQASISCRSSQSLENSNGNTYLNWYLQKPGQSPQLLIYRVSKRFSGVLDRFSGSGSGTDFTLKISRVEAEDLGVYFCLQLTHVPYTFGGGTKLEIKRTVAAPSVFIFPPSDEQLKSGTASVVCLLNNFYPREAKVQWKVDNALQSGNSQESVTEQDSKDSTYSLSSTLTLSKADYEKHKVYACEVTHQGLSSPVTKSFNRGEC
# chain 4: DKTHTCPPCPAPEAAGGPSVFLFPPKPKDTLMISRTPEVTCVVVDVSHEDPEVKFNWYVDGVEVHNAKTKPREEQYNSTYRVVSVLTVLHQDWLNGKEYKCKVSNKALGAPIEKTISKAKGQPREPQVCTLPPSRDELTKNQVSLSCAVKGFYPSDIAVEWESNGQPENNYKTTPPVLDSDGSFFLVSKLTVDKSRWQQGNVFSCSVMHEALHNHYTQKSLSLSP
# B4: Molecule A: 2+1 IgG CrossFab, inverted, with charge modifications (VH/VL exchange in CD3 binder, charge modification in CD19 binder, parental murine CD19 … (bispecific antibody)
# chain 1: EVQLQQSGPELVKPGASVKMACKASGYTFTDYIMHWVKQKTGQGLEWIGYINPYNDGSKYTEKFNGKATLTSDKSSITAYMELSSLTSEDSAVYYCARGTYYYGSALFDYWGQGTTLTVSSASTKGPSVFPLAPSSKSTSGGTAALGCLVEDYFPEPVTVSWNSGALTSGVHTFPAVLQSSGLYSLSSVVTVPSSSLGTQTYICNVNHKPSNTKVDEKVEPKSCDKTHTCPPCPAPEAAGGPSVFLFPPKPKDTLMISRTPEVTCVVVDVSHEDPEVKFNWYVDGVEVHNAKTKPREEQYNSTYRVVSVLTVLHQDWLNGKEYKCKVSNKALGAPIEKTISKAKGQPREPQVCTLPPSRDELTKNQVSLSCAVKGFYPSDIAVEWESNGQPENNYKTTPPVLDSDGSFFLVSKLTVDKSRWQQGNVFSCSVMHEALHNHYTQKSLSLSP
# chain 2: not shown
# chain 3: EVQLLESGGGLVQPGGSLRLSCAASGFTFSTYAMNWVRQAPGKGLEWVSRIRSKYNNYATYYADSVKGRFTISRDDSKNTLYLQMNSLRAEDTAVYYCVRHGNFGNSYVSWFAYWGQGTLVTVSSASVAAPSVFIFPPSDEQLKSGTASVVCLLNNFYPREAKVQWKVDNALQSGNSQESVTEQDSKDSTYSLSSTLTLSKADYEKHKVYACEVTHQGLSSPVTKSFNRGEC
# chain 4: B3 chain 3 with E128R, Q129K
# B5: Molecule F: 1+1 IgG CrossMab with charge modifications (VH/VL exchange in CD3 binder, charge modification in CD19 binder, parental murine CD19 binder 8B8) (bispecific antibody)
# chain 1: B4 chain 1
# chain 2: B4 chain 3
# chain 3: B3 chain 3 with E128R, Q129K
# chain 4: not shown
# Assays:
# human CD19 [1] = target: T1, human CD19; test: cell-based or functional assay
# human CD19 [2] = target: T1, human CD19; test: cell-based or functional assay; remark: listed apart in the source
# human CD19 [3] = target: T1, human CD19; test: flow cytometry on CD19-expressing Raji cells
# Method: The binding of CD19 IgGs and CD19 TCBs to human CD19- and CD3-expressing target cells was tested using CD19-expressing Burkitt's lymphoma cells (Raji) and CD3-expressing immortalized T lymphocyte line (Jurkat). Briefly, cells were harvested, counted, checked for viability and resuspended at 2×10⁶ cells/ml in FACS buffer (100 μl PBS 0.1% BSA). 100 μl of cell suspension (containing 0.2×10⁶ cells) were incubated in round-bottom 96-well plate for 30 min at 4° C. with increasing concentrations of the CD19 IgGs and CD19 TCBs (10 pM-200 nM), washed twice with cold PBS 0.1% BSA, re-incubated for further 30 min at 4° C. with the PE-conjugated AffiniPure F(ab′)2 Fragment goat anti-human IgG Fcg Fragment Specific secondary antibody (Jackson Immuno Research Lab PE #109-116-170), washed twice with cold PBS 0.1% BSA and immediately analyzed by FACS using a FACS Cantoll (Software FACS Diva) by gating live, DAPI-negative, cells.
# human CD19 [4] = target: T1, human CD19; test: cell-based or functional assay; remark: listed apart in the source
# human CD19 [5] = target: T1, human CD19; test: cell-based or functional assay; remark: listed apart in the source
Binder,"T cell activation EC50 upon lysis of Z-138 cells, CD25/CD4 (human CD19 [1])","T cell activation EC50 upon lysis of Z-138 cells, CD25/CD8 (human CD19 [1])","T cell activation EC50 upon lysis of Z-138 cells, CD69/CD4 (human CD19 [1])","T cell activation EC50 upon lysis of Z-138 cells, CD69/CD8 (human CD19 [1])","T cell activation EC50 upon lysis of Z-138 cells, CD107/CD4 (human CD19 [1])","T cell activation EC50 upon lysis of Z-138 cells, CD107/CD8 (human CD19 [1])","Tumor cell lysis Z-138 cells (21 h), EC50 (human CD19 [2])","Tumor cell lysis Z-138 cells (21 h), EC50 (pM) (human CD19 [2])",EC50 (human CD19 [3]),"T cell activation EC50 upon lysis of Z-138 cells, CD25/CD4 (human CD19 [4])","T cell activation EC50 upon lysis of Z-138 cells, CD25/CD8 (human CD19 [4])","T cell activation EC50 upon lysis of Z-138 cells, CD69/CD4 (human CD19 [4])","T cell activation EC50 upon lysis of Z-138 cells, CD69/CD8 (human CD19 [4])","T cell activation EC50 upon lysis of Z-138 cells, CD107/CD4 (human CD19 [4])","T cell activation EC50 upon lysis of Z-138 cells, CD107/CD8 (human CD19 [4])","Tumor cell lysis Z-138 cells (21 h), EC50 (human CD19 [5])","Tumor cell lysis Z-138 cells (21 h), EC50 (pM) (human CD19 [5])"
B1,1.85 pM,1.53 pM,~0.75 pM,0.7 pM,1.14 pM,1.13 pM,0.57 ng/mL,2.93 pM,,,,,,,,,
B2,,,,,,,,,5.2 nM and 0.763 µg/mL,,,,,,,,
B3,,,,,,,,,,3.55 pM,3.31 pM,1.04 pM,1.71 pM,2.09 pM,2.76 pM,0.62 ng/mL,4.2 pM
B4,~4.58 pM,2.87 pM,1.41 pM,1.37 pM,2.34 pM,2 pM,0.92 ng/mL,~4.7 pM,,,,,,,,,
B5,,,,,,,,,,10 pM,6.5 pM,3.97 pM,2.59 pM,7.54 pM,4.02 pM,7.85 ng/mL,53.7 pM
